Each block holds one sequence with its values, some of them ahead of it.
How the values were obtained:
HLA-A*03:01 = test: IEDB peptide-MHC binding, purified MHC/direct/fluorescence; filed as Kd, often an IC50 or EC50 that approximates it; ≥ and ≤ were set here for values at or beyond the usual limits of such assays
HLA-B*15:01 [1] = test: as above
HLA-B*51:01 = test: as above; conditions: source organism: Brucella suis 1330
HLA-B*27:03 = test: as above; conditions: source organism: Brucella suis 1330
HLA-B*46:01 = test: as above; conditions: source organism: Brucella suis 1330
HLA-A*68:02 = test: as above
HLA-A*29:02 = test: as above; conditions: source organism: Brucella suis 1330
HLA-A*66:01 [2] = test: as above; conditions: source organism: Brucella suis 1330
HLA-B*57:01 = test: as above
HLA-B*18:01 = test: as above
HLA-B*40:01 = test: IEDB peptide-MHC binding, purified MHC/competitive/fluorescence; filed as Kd, often an IC50 or EC50 that approximates it; ≥ and ≤ were set here for values at or beyond the usual limits of such assays
HLA-B*44:02 = test: as above
HLA-B*14:02 = test: as above
HLA-B*58:01 [3] = test: as above
HLA-B*07:02 [4] = test: as above
HLA-B*53:01 = test: as above
HLA-B*08:01 = test: as above
HLA-B*45:06 = test: as above; conditions: source organism: Brucella canis ATCC 23365
HLA-B*39:01 [5] = test: as above; conditions: source organism: Brucella canis ATCC 23365
HLA-A*24:03 = test: as above; conditions: source organism: Brucella canis ATCC 23365
HLA-B*83:01 = test: as above; conditions: source organism: Brucella canis ATCC 23365
HLA-A*30:01 = test: as above
HLA-B*15:42 = test: as above; conditions: source organism: Brucella canis ATCC 23365
HLA-A*11:01 [6] = test: as above
HLA-A*68:23 = test: as above; conditions: source organism: Brucella canis ATCC 23365
HLA-A*23:01 = test: as above
HLA-A*30:02 [7] = test: as above
HLA-A*01:01 [8] = test: as above
HLA-A*80:01 = test: IEDB peptide-MHC binding, purified MHC/direct/fluorescence; filed as Kd, often an IC50 or EC50 that approximates it; ≥ and ≤ were set here for values at or beyond the usual limits of such assays; conditions: source organism: Dengue virus 1 Singapore/S275/1990
HLA-B*58:01 [9] = test: IEDB peptide-MHC binding, purified MHC/competitive/radioactivity; filed as Kd, often an IC50 or EC50 that approximates it; ≥ and ≤ were set here for values at or beyond the usual limits of such assays; conditions: source organism: Dengue virus 1 Brazil/97-11/1997
HLA-A*30:02 [10] = test: as above; conditions: source organism: Dengue virus 1 Brazil/97-11/1997
HLA-B*15:01 [11] = test: IEDB peptide-MHC binding, purified MHC/competitive/fluorescence; filed as Kd, often an IC50 or EC50 that approximates it; ≥ and ≤ were set here for values at or beyond the usual limits of such assays; conditions: source organism: Escherichia coli 536
HLA-B*27:05 [12] = test: as above; conditions: source organism: Escherichia coli 536
HLA-A*66:01 [13] = test: as above; conditions: source organism: Escherichia coli 536
HLA-A*26:03 = test: IEDB peptide-MHC binding, purified MHC/direct/fluorescence; filed as Kd, often an IC50 or EC50 that approximates it; ≥ and ≤ were set here for values at or beyond the usual limits of such assays; conditions: source organism: Bacillus cereus H3081.97
HLA-B*58:01 [14] = test: as above; conditions: source organism: Bacillus anthracis
HLA-B*07:02 [15] = test: as above; conditions: source organism: Bacillus anthracis
HLA-A*26:02 = test: as above; conditions: source organism: Bacillus cereus H3081.97
HLA-B*27:05 [16] = test: as above; conditions: source organism: Bacillus anthracis
HLA-B*39:01 [17] = test: as above; conditions: source organism: Bacillus cereus H3081.97
HLA-B*15:17 = test: as above; conditions: source organism: Bacillus anthracis
HLA-A*31:01 = test: as above; conditions: source organism: Bacillus anthracis
HLA-A*11:01 [18] = test: as above; conditions: source organism: Bacillus anthracis
HLA-B*73:01 = test: as above; conditions: source organism: Bacillus anthracis
HLA-A*69:01 = test: as above; conditions: source organism: Bacillus anthracis
HLA-A*02:01 = test: as above; conditions: source organism: Bacillus anthracis
HLA-B*48:01 = test: as above; conditions: source organism: Bacillus anthracis
HLA-A*01:01 [19] = test: as above; conditions: source organism: Bacillus anthracis
[20] = source organism: Brucella suis 1330
[21] = source organism: Brucella canis ATCC 23365
[22] = source organism: Escherichia coli 536
[23] = source organism: Bacillus anthracis

Sequence: ETVWPFFYA
Kd (HLA-A*03:01; [20]): ≥ 20 µM
Kd (HLA-B*15:01 [1]; [20]): ≥ 20 µM
Kd (HLA-B*51:01): ≥ 20 µM
Kd (HLA-B*27:03): ≥ 20 µM
Kd (HLA-B*46:01): ≥ 20 µM
Kd (HLA-A*68:02; [20]): ≤ 0.001 µM
Kd (HLA-A*29:02): ≥ 20 µM
Kd (HLA-A*66:01 [2]): 101 nM
Kd (HLA-B*57:01; [20]): ≥ 20 µM
Kd (HLA-B*18:01; [20]): ≥ 20 µM
Kd (HLA-B*40:01; [21]): ≥ 5 µM
Kd (HLA-B*44:02; [21]): ≥ 5 µM
Kd (HLA-B*14:02; [21]): ≥ 5 µM
Kd (HLA-B*58:01 [3]; [21]): ≥ 5 µM
Kd (HLA-B*07:02 [4]; [21]): ≥ 5 µM
Kd (HLA-B*53:01; [21]): ≥ 5 µM
Kd (HLA-B*08:01; [21]): ≥ 5 µM
Kd (HLA-B*45:06): ≥ 5 µM
Kd (HLA-B*39:01 [5]): ≥ 5 µM
Kd (HLA-A*24:03): ≥ 5 µM
Kd (HLA-B*83:01): ≥ 5 µM
Kd (HLA-A*30:01; [21]): ≥ 5 µM
Kd (HLA-B*15:42): ≥ 5 µM
Kd (HLA-A*11:01 [6]; [21]): ≥ 5 µM
Kd (HLA-A*68:23): 1.3 nM
Kd (HLA-A*23:01; [21]): ≥ 5 µM
Kd (HLA-A*30:02 [7]; [21]): ≥ 5 µM
Kd (HLA-A*01:01 [8]; [21]): ≥ 5 µM

Sequence: KSAAIDGEY
Kd (HLA-A*80:01): 44.1 nM
Kd (HLA-B*58:01 [9]): 6.58 nM
Kd (HLA-A*30:02 [10]): 703 nM

Kd (HLA-B*40:01; [22]): ≥ 5 µM
Kd (HLA-B*44:02; [22]): ≥ 5 µM
Kd (HLA-B*14:02; [22]): ≥ 5 µM
Kd (HLA-B*58:01 [3]; [22]): ≥ 5 µM
Kd (HLA-B*15:01 [11]): ≥ 5 µM
Kd (HLA-B*07:02 [4]; [22]): ≥ 5 µM
Kd (HLA-B*53:01; [22]): ≥ 5 µM
Kd (HLA-B*08:01; [22]): ≥ 5 µM
Kd (HLA-B*27:05 [12]): ≥ 5 µM
Kd (HLA-A*30:01; [22]): ≥ 5 µM
Kd (HLA-A*11:01 [6]; [22]): ≥ 5 µM
Kd (HLA-A*66:01 [13]): ≥ 5 µM
Kd (HLA-A*23:01; [22]): ≥ 5 µM
Kd (HLA-A*30:02 [7]; [22]): ≥ 5 µM
Kd (HLA-A*01:01 [8]; [22]): ≥ 5 µM
Sequence: YQAENSTAE

Sequence: PRFGSCYFL
Kd (HLA-A*26:03): ≥ 20 µM
Kd (HLA-A*03:01; [23]): ≥ 20 µM
Kd (HLA-B*58:01 [14]): ≥ 20 µM
Kd (HLA-B*15:01 [1]; [23]): ≥ 20 µM
Kd (HLA-B*07:02 [15]): 2720 nM
Kd (HLA-A*26:02): ≥ 20 µM
Kd (HLA-B*27:05 [16]): ≥ 20 µM
Kd (HLA-B*39:01 [17]): ≥ 20 µM
Kd (HLA-B*15:17): ≥ 20 µM
Kd (HLA-A*68:02; [23]): ≥ 20 µM
Kd (HLA-A*31:01): ≥ 20 µM
Kd (HLA-A*11:01 [18]): ≥ 20 µM
Kd (HLA-B*57:01; [23]): ≥ 20 µM
Kd (HLA-B*73:01): ≥ 20 µM
Kd (HLA-A*69:01): ≥ 20 µM
Kd (HLA-A*02:01): ≥ 20 µM
Kd (HLA-B*48:01): ≥ 20 µM
Kd (HLA-A*01:01 [19]): ≥ 20 µM
Kd (HLA-B*18:01; [23]): ≥ 20 µM

Source: the Immune Epitope Database (IEDB)
